Measurements taken from PMC7402097, “Reduction of Protein Bound Methionine Sulfoxide by a Periplasmic Dimethyl Sulfoxide Reductase” (Antioxidants, 2020).

Key:
purified protein [1] = substrate: C[S+](C)[O-]; assay: purified protein; conditions: Britton-Robinson buffer pH 6.0, 46 nM DorA, electron donor dithionite-reduced benzyl viologen
purified protein [2] = substrate: C[S+]([O-])CC[C@H](N)C(=O)O; assay: purified protein; type: biochemical, Cereibacter sphaeroides; conditions: Britton-Robinson buffer pH 6.0, 46 nM DorA, electron donor dithionite-reduced benzyl viologen, R,S diastereomer mixture used, KM already divided by 2 to count only the S-diastereomer

B1: DorA DMSO reductase (Cereibacter sphaeroides) (protein)
chain: EGLANGEVMSGCHWGVFKARVENGRAVAFEPWDKDPAPSHQLPGVLDSIYSPTRIKYPMVRREFLEKGVNADRSTRGNGDFVRVTWDEALDLVARELKRVQESYGPTGTFGGSYGWKSPGRLHNCQVLMRRALNLAGGFVNSSGDYSTAAAQIIMPHVMGTLEVYEQQTAWPVVVENTDLMVFWAADPMKTNEIGWVIPDHGAYAGMKALKEKGTRVICINPVRTETADYFGADVVSPRPQTDVALMLGMAHTLYSEDLHDKDFLENCTTGFDLFAAYLTGESDGTPKTAEWAAEICGLPAEQIRELARSFVAGRTMLAAGWSIQRMHHGEQAHWMLVTLASMIGQIGLPGGGFGLSYHYSNGGSPTSDGPALGGISDGGKAVEGAAWLSESGATSIPCARVVDMLLNPGGEFQFNGATATYPDVKLAYWAGGNPFAHHQDRNRMLKAWEKLETFIVQDFQWTATARHADIVLPATTSYERNDIESVGDYSNRAILAMKKVVDPLYEARSDYDIFAALAERLGKGAEFTEGRDEMGWISSFYEAAVKQAEFKNVAMPSFEDFWSEGIVEFPITEGANFVRYADFREDPLFNPLGTPSGLIEIYSKNIEKMGYDDCPAHPTWMEPAERLGGAGAKYPLHVVASHPKSRLHSQLNGTSLRDLYAVAGHEPCLINPADAAARGIADGDVLRVFNDRGQILVGAKVSDAVMPGAIQIYEGGWYDPLDPSEEGTLDKYGDVNVLSLDVGTSKLAQGNCGQTILADVEKYAGAPVTVTVFDTPKGA
notes: full-length dorA with C-terminal 6-His tag (kept), pIND4-DorA-His; expressed in R. sphaeroides f. sp. denitrificans IL106 dorA- (host) and purified from periplasm; monomeric
Q: With B1 as the protein, how does the Km (purified protein [1]) read?
A: 1.8 ± 0.4 µM

Q: What about the kcat (purified protein [1]) of the same protein?
A: 3.9 s⁻¹

Q: What about the kcat/Km (purified protein [1]) of the same protein?
A: 2.2e+06 M⁻¹ s⁻¹

Q: What about the Km (purified protein [2]) of the same protein?
A: 68.8 ± 5.7 µM

Q: And the kcat (purified protein [2])?
A: 4.2 ± 0.1 s⁻¹

Q: And the kcat/Km (purified protein [2])?
A: 61000 M⁻¹ s⁻¹
